# Assay results taken from PMC12442371.
# Target: IbcK (isobutylene catabolism gene K product), epoxide hydrolase from Mycolicibacterium sp. ELW1 (Mycolicibacterium sp. ELW1)
# Assay: SEC; Biosep-SEC S3000 column on UPLC, 10 mM Tris-HCl pH 7, 150 mM NaCl, 0.3 mL/min, 10 µL injected; two peaks, dimer to monomers
substance,measurement,value
"IbcK (isobutylene catabolism gene K product), epoxide hydrolase from Mycolicibacterium sp. ELW1 (enzyme)",stoichiometry N,2
